Reference: US20150291681A1 (published 2015)

B1: tomato-tagged Ser (Sertom), wild type Drosophila Serrate (ligand)
chain: GNFELEILEISNTNSHLLNGYCCGMPAELRATKTIGCSPCTTAFRLCLKEYQTTEQGASISTGCSFGNATTKILGGSSFVLSDPGVGAIVLPFTFRWTKSFTLILQALDMYNTSYPDAERLIEETSYSGVILPSPEWKTLDHIGRNARITYRVRVQCAVTYYNTTCTTFCRPRDDQFGHYACGSEGQKLCLNGWQGVNCEEAICKAGCDPVHGKCDRPGECECRPGWRGPLCNECMVYPGCKHGSCNGSAWKCVCDTNWGGILCDQDLNFCGTHEPCKHGGTCENTAPDKYRCTCAEGLSGEQCEIVEHPCATRPCRNGGTCTLKTSNRTQAQVYRTSHGRSNMGRPVRRSSSMRSLDHLRPEGQALNGSSSSGLVSLGSLQLQQQLAPDFTCDCAAGWTGPTCEINIDECAGGPCEHGGTCIDLIGGFRCECPPEWHGDVCQVDVNECEAPHSAGIAANALLTTTATAIIGSNLSSTALLAALTSAVASTSLAIGPCINAKECRNQPGSFACICKEGWGGVTCAENLDDCVGQCRNGATCIDLVNDYRCACASGFTGRDCETDIDECATSPCRNGGECVDMVGKFNCICPLGYSGSLCEEAKENCTPSPCLEGHCLNTPEGYYCHCPPDRAGKHCEQLRPLCSQPPCNEGCFANVSLATSATTTTTTTTTATTTRKMAKPSGLPCSGHGSCEMSDVGTFCKCHVGHTGTFCEHNLNECSPNPCRNGGICLDGDGDFTCECMSGWTGKRCSERATGCYAGQCQNGGTCMPGAPDKALQPHCRCAPGWTGLFCAEAIDQCRGQPCHNGGTCESGAGWFRCVCAQGFSGPDCRINVNECSPQPCQGGATCIDGIGGYSCICPPGRHGLRCEILLSDPKSACQNASNTISPYTALNRSQNWLDIALTGRTEDDENCNACVCENGTSRCTNLWCGLPNCYKVDPLSKSSNLSGVCKQHEVCVPALSETCLSSPCNVRGDCRALEPSRRVAPPRLPAKSSCWPNQAVVNENCARLTILLALERVGKGASVEGLCSLVRVLLAAQLIKKPASTFGQDPGMLMVLCDLKTGTNDTVELTVSSSKLNDPQLPVAVGLLGELLSSRQLNGIQRRKELELQHAKLAALTSIVEVKLETARVADGSGHSLLIGVLCGVFIVLVGFSVFISLYWKQRLAYRTSSGMNLTPSLDALRHEEEKSNNLQNEENLRRYTNPLKGSTSSLRAATGMELSLNPAPELAASAASSSALHRSQPLFPPCDFERELDSSTGLKQAHKRSSQILLHKTQNSDMRKNTVGSLDSPRKDFGKRSINCKSMPPSSGDEGSDVLATTVMV
notes: The tomato tag is an internal insertion in the intracellular domain; also called Ser+Tomato; Ser Bsp tom; not shown: fluorescent tomato tag (Shaner et al., 2004), INSERTED within the intracellular domain at the Bsp EI site of the Ser cDN
B2: wild type Drosophila Serrate (Ser), UAS-Ser transgene (ligand)
chain: B1 chain
notes: also called wild type Ser

Key:
[1] = target: T1, EGFP labeled Notch (Drosophila Notch stably expressed on S2 cells) (Drosophila, UniProt P07207 53-2703); assay: S2 cell aggregation; Sertom DNA transfected into Notch-EGFP cells (cis), competitor of Sertom cells (trans)
T1 construct: whole, on cells; how EGFP is joined to Notch is not described; also called Notch+EGFP; N+EGFP; not shown: EGFP label
T1 sequence (P07207 53-2703): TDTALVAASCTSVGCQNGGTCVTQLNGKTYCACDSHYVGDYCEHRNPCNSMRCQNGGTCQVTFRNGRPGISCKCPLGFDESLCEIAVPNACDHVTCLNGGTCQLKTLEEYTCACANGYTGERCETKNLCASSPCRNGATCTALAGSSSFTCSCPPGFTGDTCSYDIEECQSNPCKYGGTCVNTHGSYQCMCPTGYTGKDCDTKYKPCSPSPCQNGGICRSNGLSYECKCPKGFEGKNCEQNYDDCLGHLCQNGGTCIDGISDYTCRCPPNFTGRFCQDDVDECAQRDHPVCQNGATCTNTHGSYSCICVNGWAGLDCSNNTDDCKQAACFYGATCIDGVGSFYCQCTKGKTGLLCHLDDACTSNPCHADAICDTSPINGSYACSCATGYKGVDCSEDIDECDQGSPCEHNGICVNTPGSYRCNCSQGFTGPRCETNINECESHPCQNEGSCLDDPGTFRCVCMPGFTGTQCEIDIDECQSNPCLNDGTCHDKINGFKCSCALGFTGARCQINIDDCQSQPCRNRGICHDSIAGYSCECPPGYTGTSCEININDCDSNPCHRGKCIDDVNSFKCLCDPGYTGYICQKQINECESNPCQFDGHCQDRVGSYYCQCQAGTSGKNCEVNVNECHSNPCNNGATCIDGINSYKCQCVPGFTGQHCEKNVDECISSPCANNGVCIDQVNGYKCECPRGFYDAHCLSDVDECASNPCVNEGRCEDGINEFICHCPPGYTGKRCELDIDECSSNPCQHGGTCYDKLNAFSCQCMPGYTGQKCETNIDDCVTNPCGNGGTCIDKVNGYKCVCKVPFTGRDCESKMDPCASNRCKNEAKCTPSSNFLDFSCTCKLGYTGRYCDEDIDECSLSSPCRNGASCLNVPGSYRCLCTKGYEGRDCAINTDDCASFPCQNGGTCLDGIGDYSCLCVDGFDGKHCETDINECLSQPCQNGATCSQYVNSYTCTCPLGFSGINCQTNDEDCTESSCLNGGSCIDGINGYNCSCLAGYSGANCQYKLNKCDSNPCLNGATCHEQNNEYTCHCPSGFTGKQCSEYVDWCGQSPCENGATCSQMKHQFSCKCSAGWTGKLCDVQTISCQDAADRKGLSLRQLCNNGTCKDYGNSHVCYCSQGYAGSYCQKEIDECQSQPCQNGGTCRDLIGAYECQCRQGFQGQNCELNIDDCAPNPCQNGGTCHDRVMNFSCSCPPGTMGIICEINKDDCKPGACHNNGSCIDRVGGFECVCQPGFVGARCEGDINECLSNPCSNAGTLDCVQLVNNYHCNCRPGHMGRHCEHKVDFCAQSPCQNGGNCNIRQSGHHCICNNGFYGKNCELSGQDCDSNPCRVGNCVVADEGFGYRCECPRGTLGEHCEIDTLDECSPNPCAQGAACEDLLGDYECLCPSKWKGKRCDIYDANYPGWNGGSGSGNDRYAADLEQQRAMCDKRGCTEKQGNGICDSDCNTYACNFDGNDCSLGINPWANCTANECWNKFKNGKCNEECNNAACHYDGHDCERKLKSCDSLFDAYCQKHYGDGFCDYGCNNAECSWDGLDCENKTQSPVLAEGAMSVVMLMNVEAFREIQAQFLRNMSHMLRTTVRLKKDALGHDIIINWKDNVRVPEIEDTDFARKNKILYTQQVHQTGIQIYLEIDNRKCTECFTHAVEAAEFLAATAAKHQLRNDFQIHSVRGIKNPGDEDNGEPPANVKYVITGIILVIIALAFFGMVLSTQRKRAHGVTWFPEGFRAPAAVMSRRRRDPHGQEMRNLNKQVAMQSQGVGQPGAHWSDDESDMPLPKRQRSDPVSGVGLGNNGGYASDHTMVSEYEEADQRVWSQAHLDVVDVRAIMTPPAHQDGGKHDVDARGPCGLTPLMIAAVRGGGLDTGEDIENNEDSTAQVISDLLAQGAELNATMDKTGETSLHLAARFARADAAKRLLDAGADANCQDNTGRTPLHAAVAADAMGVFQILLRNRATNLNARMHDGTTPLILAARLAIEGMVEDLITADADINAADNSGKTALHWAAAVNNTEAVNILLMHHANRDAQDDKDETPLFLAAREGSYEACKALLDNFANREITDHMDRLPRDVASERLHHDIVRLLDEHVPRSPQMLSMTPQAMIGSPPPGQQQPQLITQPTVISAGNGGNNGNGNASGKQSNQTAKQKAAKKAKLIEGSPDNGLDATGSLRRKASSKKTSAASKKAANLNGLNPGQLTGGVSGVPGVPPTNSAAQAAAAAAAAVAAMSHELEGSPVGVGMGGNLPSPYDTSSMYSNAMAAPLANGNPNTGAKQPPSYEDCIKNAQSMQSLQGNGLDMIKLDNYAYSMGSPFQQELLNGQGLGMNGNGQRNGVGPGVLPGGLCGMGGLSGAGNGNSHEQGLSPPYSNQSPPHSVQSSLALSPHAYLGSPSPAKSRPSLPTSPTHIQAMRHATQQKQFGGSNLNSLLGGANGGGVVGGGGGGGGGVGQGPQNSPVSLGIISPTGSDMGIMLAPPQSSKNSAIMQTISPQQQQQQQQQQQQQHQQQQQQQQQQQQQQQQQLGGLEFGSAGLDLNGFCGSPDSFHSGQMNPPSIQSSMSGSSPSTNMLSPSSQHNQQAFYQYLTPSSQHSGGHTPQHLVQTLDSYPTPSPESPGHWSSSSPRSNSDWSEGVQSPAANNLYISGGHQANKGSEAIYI
Experimental: Stable lines of EGFP-labeled Notch cells were added to stable lines of tomato tagged Ser-expressing cells, allowed to mix for 24 hours at room temperature and were assayed for the formation of interacting cellular aggregates (Fehon et al., 1990, Cell 3:523-534). The Notch expressing cells were transiently transfected with tomato-tagged Ser DNA at concentrations ranging between 0.0 μg and 2.0 μg prior to mixing with Ser expressing cells to induce cis-inhibition by co-expressed Ser with Notch. When performed with wild type Ser DNA (A of this figure), effective inhibition of aggregation occurs in a dose dependent manner when the Ser expressing cells (Ser labeled columns) are mixed with the transfected Notch cells. When Ser expressing cells are not mixed with the transfected Notch cells (S2R+), self-aggregate formation is minimal.
S2 cells stably expressing tomato-tagged Ser (Sertom) were mixed with S2 cells stably expressing EGFP labeled Notch and allowed to aggregate with one another to determine baseline levels of Notch-Ser interactions (FIG. 6). Subsequent experiments transiently transfected the stable Notch EGFP line with either Sertom (wild type), SerDel6tom or SerDel3tom transgenes at varying concentrations to promote cis-inhibition within the Notch-expressing cells. […]

[2] = target: T2, endogenous Drosophila Notch (wing imaginal disc) (Drosophila, UniProt P07207 53-2703); assay: summing-up sentence; inferred from trans-activation in wing discs and aggregation assays
T2 construct: whole, on cells; also called Notch receptor
T2 sequence (P07207 53-2703): as above
Experimental: To define potential inhibitory domains in the extracellular domain of the Notch ligands, a systematic deletion analysis of an extracellular region of the Drosophila Notch ligand Ser was performed. Ser has 14 ELRs in its extracellular domain (FIG. 4) and has been the ligand best explored for its inhibitory properties (Klein et al., 1997, Dev. Biol. 1:123-134; Li and Baker, 2004, BMC Dev. Biol. 5). […] Using the Gal4ptc promoter, the influence of ectopic Ser expression on Notch activity was measured by examining how it affects the expression of CUT, a transcriptional target of Notch signals and is a classic indicator of Notch activity in the dorsal/ventral boundary and ventral region of the wing disc (Doherty et al., 1996, Genes Dev. 4:421-434).
Ser constructs were expressed in the third instar imaginal wing disc via the ptc promoter using the Gal4 system (Brand and Perrimon, 1993, Development 2:401-415). Notch activity was assessed by examination of CUT expression induced in response to Notch activity (Neumann and Cohen, 1996, Development 11:3477-3485). […]

Row | Binder | binding result [1] | binding result [2]
1 | B1 | binds | –
2 | B2 | – | binds
